“And” between values parts separate entries of the source, which are not always exact repeats. Equal values may be shown once. Read-outs that look alike come from different tables or passages of the source.
How the values were obtained:
[1] = target: FusC(E83A) mutant, catalytically inactive (Pectobacterium (species and strain of the cloned gene not stated)); experiment: ITC; ferredoxin (200 uM) titrated in 10 ul steps, 27 titrations, into the chamber with FusC(E83A) (20 uM); 20 mM HEPES, 50 mM NaCl pH 7.5; MicroCal VP-ITC; 299.15 K (Table 2); parameters from the average of the two best of three reactions
[2] = target: FusC(E83A) mutant, catalytically inactive (Pectobacterium (species and strain of the cloned gene not stated)); experiment: as above; remark: listed apart in the source

**Q.** For “ferredoxin from the plant Arabidopsis thaliana (from UniProt P16972 53-145) (natural protein)”, which Ka [1] is on record?
**A.** Its Ka is 452000 M⁻¹ and 805000 M⁻¹ and 629000 M⁻¹.

**Q.** What about the Kd [1] of the same substance?
**A.** Its Kd is 1240 nM and 1730 nM and 2210 nM.

**Q.** And the dH [1]?
**A.** The dH was -5.2 kcal/mol and -4.91 kcal/mol and -5.06 kcal/mol.

**Q.** And the stoichiometry N [1]?
**A.** The stoichiometry N was 1.12 and 1.06 and 1.09.

**Q.** And the Kd [2]?
**A.** Its Kd is 1900 nM.

— publication PMC6071955
